Target: zFGF5 (human) (UniProt O76093)
Test: cell-based or functional assay

Sequence of zFGF5 (human) (O76093 28-207): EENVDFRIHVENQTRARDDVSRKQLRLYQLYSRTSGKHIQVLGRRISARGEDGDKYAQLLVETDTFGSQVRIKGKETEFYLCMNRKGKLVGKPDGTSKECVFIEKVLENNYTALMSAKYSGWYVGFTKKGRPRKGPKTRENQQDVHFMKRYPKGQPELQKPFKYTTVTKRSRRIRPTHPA

Cell Proliferation (percent of control), BAF3/FGFR3α-IIIc cells with zFGF5, soluble receptor at 0 fold-excess (percent of control): 100
Cell Proliferation (percent of control), BAF3/FGFR3α-IIIc cells with zFGF5, soluble receptor at 62.5 fold-excess (percent of control): 101
Cell Proliferation (percent of control), BAF3/FGFR3α-IIIc cells with zFGF5, soluble receptor at 125 fold-excess (percent of control): 90
Cell Proliferation (percent of control), BAF3/FGFR3α-IIIc cells with zFGF5, soluble receptor at 250 fold-excess (percent of control): 91
Cell Proliferation (percent of control), BAF3/FGFR3α-IIIc cells with zFGF5, soluble receptor at 500 fold-excess (percent of control): 101
Cell Proliferation (percent of control), BAF3/FGFR3α-IIIc cells with zFGF5, soluble receptor at 1000 fold-excess (percent of control): 99
Substance: FGFR2α-IIIb/Fc (from UniProt P21802 22-378) (Fc fusion)
